Reference: patent US20050114927

Biological target: Yeast wild-type L3 incorporated into ribosomes of wild-type cells

B1: Pokeweed antiviral protein (PAP) (protein)
chain: VNTIIYNVGSTTISKYATFLNDLRNEAKDPSLKCYGIPMLPNTNTNPKYVLVELQGSNKKTITLMLRRNNLYVMGYSDPFETNKCRYHIFNDISGTERQDVETTLCPNANSRVSKNINFDSRYPTLESKAGVKSRSQVQLGIQILDSNIGKISGVMSFTEKTEAEFLLVAIQMVSEAARFKYIENQVKTNFNRAFNPNPKVLNLQETWGKISTAIHDAKNGVLPKPLELVDASGAKWIVLRVDEIKPDVALLNYVGGSCQTTY
association with isolated ribosomes (immunoblot with antibody against PAP): Both PAP and PAPx were associated with ribosomes in wild-type cells
